From publication PMC11784022, “An unusual activity of mycobacterial MutT1 Nudix hydrolase domain as a protein phosphatase regulates nucleoside diphosphate kinase function” (Journal of Bacteriology, 2024) come the findings set out here.

The series concerns the molecule itself. Put plainly: SDS-PAGE of samples not heated in sample buffer; MsmNDK-Pi (1 µg) in kinase buffer (50 mM Tris-HCl pH 8.0, 50 mM KCl, 10 mM MgCl2), 30°C, mixed with SDS-PAGE sample buffer without heating, 12% SDS-PAGE, Coomassie stain.

B1: Mycobacterium smegmatis nucleoside diphosphate kinase (MsmNDK) (enzyme, Mycobacterium smegmatis mc2155, UniProt O85501 1-139, looked up)
chain: MTERTLVLIKPDGVKRQLVGEILSRIERKGLTLAALELKNVSDDLARQHYAEHADKPFFGSLLEFITSGPLVAAIVEGPRAVAAFRQIAGGTDPVEKAVPGTIRGDFALITQDNLVHGSDSPESAAREIALWFPGEATA
notes: Nucleoside diphosphate kinase of Mycobacterium smegmatis mc2155, locus MSMEG_4627; ORF amplified from genomic DNA and cloned into pProEx-Htb between NcoI and HindIII; also called MsmNDK-Pi; source: E. coli M15, purified (Ni-NTA, Superdex-75)
For B1, the binding result is “binds”.
